Laboratory results published in paper PMC9482650, “Quantitative fragmentomics allow affinity mapping of interactomes” (Nature Communications, 2022).

Key:
Assay in all cases: holdup assay
Set-up in all cases: key: below the threshold = too weak to quantify, mostly under pKd 3.1 to 4
AHNAK1, Q09666 = target: AHNAK1, Q09666
ARHGAP21, Q5T5U3 = target: T1, ARHGAP21, Q5T5U3
T1 sequence (Q5T5U3 45-169, limits assumed, looked up): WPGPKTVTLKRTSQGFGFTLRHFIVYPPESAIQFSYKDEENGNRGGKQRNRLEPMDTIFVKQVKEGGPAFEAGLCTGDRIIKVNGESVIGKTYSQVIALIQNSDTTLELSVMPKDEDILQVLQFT

DFNB31_1, Q9P202 = target: T2, DFNB31_1, Q9P202
T2 sequence (Q9P202 135-233, limits assumed, looked up): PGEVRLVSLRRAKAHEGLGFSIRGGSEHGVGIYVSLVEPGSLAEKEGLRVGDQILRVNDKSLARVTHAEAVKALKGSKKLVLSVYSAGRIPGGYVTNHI

DLG2_2, Q15700 = target: DLG2_2, Q15700
Sequence of DLG2_2, Q15700 (Q15700 189-283): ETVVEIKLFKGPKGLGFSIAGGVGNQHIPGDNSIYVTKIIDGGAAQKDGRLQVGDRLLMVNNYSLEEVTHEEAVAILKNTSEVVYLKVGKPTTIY

DLG3_2, Q92796 = target: T3, DLG3_2, Q92796
T3 sequence (Q92796 221-321, limits assumed, looked up): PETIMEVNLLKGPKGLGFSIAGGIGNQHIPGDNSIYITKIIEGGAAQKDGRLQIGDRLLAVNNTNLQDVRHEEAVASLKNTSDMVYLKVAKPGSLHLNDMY

DLG3_3, Q92796 = target: T4, DLG3_3, Q92796
T4 sequence (Q92796 374-475, limits assumed, looked up): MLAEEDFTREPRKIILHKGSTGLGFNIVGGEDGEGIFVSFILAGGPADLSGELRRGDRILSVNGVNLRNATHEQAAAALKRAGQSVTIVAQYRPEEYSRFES

DLG4_2, P78352 = target: DLG4_2, P78352
Sequence of DLG4_2, P78352 (P78352 155-259): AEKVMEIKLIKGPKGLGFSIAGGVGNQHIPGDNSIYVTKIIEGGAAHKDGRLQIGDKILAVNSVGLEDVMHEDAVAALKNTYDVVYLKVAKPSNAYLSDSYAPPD

FRMPD3, Q5JV73 = target: FRMPD3, Q5JV73
Sequence of FRMPD3, Q5JV73 (Q5JV73 12-100): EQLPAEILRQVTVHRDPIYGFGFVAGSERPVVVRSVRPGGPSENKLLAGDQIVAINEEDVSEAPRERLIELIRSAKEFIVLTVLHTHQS

GRASP, Q7Z6J2 = target: GRASP, Q7Z6J2
Sequence of GRASP, Q7Z6J2 (Q7Z6J2 96-193): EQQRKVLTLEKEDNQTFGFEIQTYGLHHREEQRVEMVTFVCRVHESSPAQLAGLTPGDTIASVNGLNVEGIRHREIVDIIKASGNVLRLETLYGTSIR

Inadl_6, Q8NI35 = target: Inadl_6, Q8NI35
Sequence of Inadl_6, Q8NI35 (Q8NI35 1058-1167): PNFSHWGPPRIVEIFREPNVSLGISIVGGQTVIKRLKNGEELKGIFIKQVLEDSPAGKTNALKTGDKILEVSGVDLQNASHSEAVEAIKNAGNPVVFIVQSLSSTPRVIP

LNX1_2, Q8TBB1 = target: LNX1_2, Q8TBB1
Sequence of LNX1_2, Q8TBB1 (Q8TBB1 371-470): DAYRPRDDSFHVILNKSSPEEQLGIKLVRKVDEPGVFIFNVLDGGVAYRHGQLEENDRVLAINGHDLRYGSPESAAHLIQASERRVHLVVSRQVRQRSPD

LRRC7, Q96NW7 = target: T5, LRRC7, Q96NW7
T5 sequence (Q96NW7 1440-1537, limits assumed, looked up): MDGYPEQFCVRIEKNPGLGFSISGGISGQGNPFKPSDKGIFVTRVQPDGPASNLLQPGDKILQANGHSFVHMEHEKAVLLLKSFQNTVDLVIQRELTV

MPP2, Q14168 = target: T6, MPP2, Q14168
T6 sequence (Q14168 180-250, limits assumed, looked up): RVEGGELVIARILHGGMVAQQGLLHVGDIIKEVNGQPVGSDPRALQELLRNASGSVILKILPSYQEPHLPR

NHERF2_2, Q15599 = target: NHERF2_2, Q15599
Sequence of NHERF2_2, Q15599 (Q15599 142-238): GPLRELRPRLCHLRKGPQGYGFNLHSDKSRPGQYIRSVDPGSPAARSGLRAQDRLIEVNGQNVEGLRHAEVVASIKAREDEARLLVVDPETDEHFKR

NHERF4_2, Q86UT5 = target: NHERF4_2, Q86UT5
Sequence of NHERF4_2, Q86UT5 (Q86UT5 220-308): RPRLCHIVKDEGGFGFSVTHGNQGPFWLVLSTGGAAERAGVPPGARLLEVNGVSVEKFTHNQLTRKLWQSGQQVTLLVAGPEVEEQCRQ

PDZRN4_1, Q6ZMN7 = target: PDZRN4_1, Q6ZMN7
Sequence of PDZRN4_1, Q6ZMN7 (Q6ZMN7 213-318): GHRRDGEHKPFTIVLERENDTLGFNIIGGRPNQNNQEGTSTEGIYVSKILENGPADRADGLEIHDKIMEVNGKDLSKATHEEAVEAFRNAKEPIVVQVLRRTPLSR

PTPN13_1, Q12923 = target: T7, PTPN13_1, Q12923
T7 sequence (Q12923 1088-1188, limits assumed, looked up): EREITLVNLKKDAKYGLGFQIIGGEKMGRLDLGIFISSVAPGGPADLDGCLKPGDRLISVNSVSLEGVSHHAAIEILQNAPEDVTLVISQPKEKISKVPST

PTPN3, P26045 = target: PTPN3, P26045
Sequence of PTPN3, P26045 (P26045 505-587): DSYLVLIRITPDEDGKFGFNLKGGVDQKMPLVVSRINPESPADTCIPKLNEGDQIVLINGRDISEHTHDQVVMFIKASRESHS

SCRIB_1, Q14160 = target: SCRIB_1, Q14160
Sequence of SCRIB_1, Q14160 (Q14160 718-814): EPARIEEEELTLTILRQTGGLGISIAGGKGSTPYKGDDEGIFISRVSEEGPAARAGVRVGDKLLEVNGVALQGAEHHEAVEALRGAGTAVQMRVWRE

SCRIB_2, Q14160 = target: SCRIB_2, Q14160
Sequence of SCRIB_2, Q14160 (Q14160 857-960): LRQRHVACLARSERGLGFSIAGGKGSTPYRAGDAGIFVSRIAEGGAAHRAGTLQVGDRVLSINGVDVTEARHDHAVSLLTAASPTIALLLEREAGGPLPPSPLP

SCRIB_3, Q14160 = target: SCRIB_3, Q14160
Sequence of SCRIB_3, Q14160 (Q14160 999-1103): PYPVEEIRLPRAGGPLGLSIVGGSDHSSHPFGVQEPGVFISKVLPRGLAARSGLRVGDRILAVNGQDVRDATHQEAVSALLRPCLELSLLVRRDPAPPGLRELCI

SHANK1, Q9Y566 = target: T8, SHANK1, Q9Y566
T8 sequence (Q9Y566 658-767, limits assumed, looked up): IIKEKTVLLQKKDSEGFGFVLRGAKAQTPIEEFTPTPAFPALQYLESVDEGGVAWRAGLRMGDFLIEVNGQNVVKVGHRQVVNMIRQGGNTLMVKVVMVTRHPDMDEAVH

SIPA1L2, Q9P2F8 = target: T9, SIPA1L2, Q9P2F8
T9 sequence (Q9P2F8 945-1036, limits assumed, looked up): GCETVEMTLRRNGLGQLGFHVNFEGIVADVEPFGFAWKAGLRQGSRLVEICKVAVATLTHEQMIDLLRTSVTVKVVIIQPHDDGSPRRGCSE

SNTG2, Q9NY99 = target: T10, SNTG2, Q9NY99
T10 sequence (Q9NY99 68-166, limits assumed, looked up): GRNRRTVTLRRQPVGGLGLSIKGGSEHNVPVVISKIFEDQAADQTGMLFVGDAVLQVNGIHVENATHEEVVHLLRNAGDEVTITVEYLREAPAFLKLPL

SYNJ2BP, P57105 = target: T11, SYNJ2BP, P57105
T11 sequence (P57105 8-110, limits assumed, looked up): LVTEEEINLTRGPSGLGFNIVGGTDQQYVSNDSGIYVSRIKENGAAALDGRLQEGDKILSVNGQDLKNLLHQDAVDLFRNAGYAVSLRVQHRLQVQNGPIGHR

TJP3_3, O95049 = target: T12, TJP3_3, O95049
T12 sequence (O95049 375-456, limits assumed, looked up): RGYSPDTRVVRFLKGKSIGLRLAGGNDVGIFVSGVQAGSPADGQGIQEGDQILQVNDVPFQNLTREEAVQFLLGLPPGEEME

[1] = plain residues with an end cap or a label only (N-terminal biotin on a linker: ttds)
[2] = plain residues with an end cap or a label only (N-terminal biotin on a linker: ahx)
[3] = plain residues with an end cap or a label only (N-terminal biotin on a linker: ado-ado)

Sequence of AHNAK1, Q09666 (Q09666 4-100): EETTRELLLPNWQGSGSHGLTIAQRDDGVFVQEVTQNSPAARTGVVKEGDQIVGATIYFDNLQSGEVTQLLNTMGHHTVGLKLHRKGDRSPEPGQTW

SPLHSLETSL [ATP2B1, P20020]
pKd (AHNAK1, Q09666; [1]): below the threshold
pKd (ARHGAP21, Q5T5U3; [1]): 3.58
pKd (DFNB31_1, Q9P202; [1]): 4.22
pKd (DLG2_2, Q15700; [1]): 4.18
pKd (DLG3_2, Q92796; [1]): 4.35
pKd (DLG3_3, Q92796; [1]): 3.97
pKd (DLG4_2, P78352; [1]): 4.15
pKd (FRMPD3, Q5JV73; [1]): 3.59
pKd (GRASP, Q7Z6J2; [1]): 4.22
pKd (Inadl_6, Q8NI35; [1]): 4.31
pKd (LNX1_2, Q8TBB1; [1]): below the threshold
pKd (LRRC7, Q96NW7; [1]): 3.58
pKd (MPP2, Q14168; [1]): below the threshold
pKd (NHERF2_2, Q15599; [1]): 4.87
pKd (NHERF4_2, Q86UT5; [1]): below the threshold
pKd (PDZRN4_1, Q6ZMN7; [1]): 5.24
pKd (PTPN13_1, Q12923; [1]): below the threshold
pKd (PTPN3, P26045; [1]): 4.95
pKd (SCRIB_1, Q14160; [1]): 5.36
pKd (SCRIB_2, Q14160; [1]): 4.27
pKd (SCRIB_3, Q14160; [1]): 5.54
pKd (SHANK1, Q9Y566; [1]): 4.71
pKd (SIPA1L2, Q9P2F8; [1]): below the threshold
pKd (SNTG2, Q9NY99; [1]): 4.66
pKd (SYNJ2BP, P57105; [1]): 4.91
pKd (TJP3_3, O95049; [1]): below the threshold

SSSNSEDTEM [NHERF3, Q5T2W1]
pKd (AHNAK1, Q09666; [2]): below the threshold
pKd (ARHGAP21, Q5T5U3; [2]): below the threshold
pKd (DFNB31_1, Q9P202; [2]): below the threshold
pKd (DLG2_2, Q15700; [2]): below the threshold
pKd (DLG3_2, Q92796; [2]): below the threshold
pKd (DLG3_3, Q92796; [2]): below the threshold
pKd (DLG4_2, P78352; [2]): below the threshold
pKd (FRMPD3, Q5JV73; [2]): below the threshold
pKd (GRASP, Q7Z6J2; [2]): below the threshold
pKd (Inadl_6, Q8NI35; [2]): below the threshold
pKd (LNX1_2, Q8TBB1; [2]): below the threshold
pKd (LRRC7, Q96NW7; [2]): below the threshold
pKd (MPP2, Q14168; [2]): below the threshold
pKd (NHERF2_2, Q15599; [2]): 4.25
pKd (NHERF4_2, Q86UT5; [2]): below the threshold
pKd (PDZRN4_1, Q6ZMN7; [2]): below the threshold
pKd (PTPN13_1, Q12923; [2]): below the threshold
pKd (PTPN3, P26045; [2]): 3.64
pKd (SCRIB_1, Q14160; [2]): below the threshold
pKd (SCRIB_2, Q14160; [2]): below the threshold
pKd (SCRIB_3, Q14160; [2]): below the threshold
pKd (SHANK1, Q9Y566; [2]): below the threshold
pKd (SIPA1L2, Q9P2F8; [2]): below the threshold
pKd (SNTG2, Q9NY99; [2]): below the threshold
pKd (SYNJ2BP, P57105; [2]): below the threshold
pKd (TJP3_3, O95049; [2]): below the threshold

RNCSTNDSLL [ADRB2, P07550]
pKd (AHNAK1, Q09666; [2]): below the threshold
pKd (ARHGAP21, Q5T5U3; [2]): 3.56
pKd (DFNB31_1, Q9P202; [2]): below the threshold
pKd (DLG2_2, Q15700; [2]): below the threshold
pKd (DLG3_2, Q92796; [2]): below the threshold
pKd (DLG3_3, Q92796; [2]): below the threshold
pKd (DLG4_2, P78352; [2]): below the threshold
pKd (FRMPD3, Q5JV73; [2]): below the threshold
pKd (GRASP, Q7Z6J2; [2]): below the threshold
pKd (Inadl_6, Q8NI35; [2]): below the threshold
pKd (LNX1_2, Q8TBB1; [2]): below the threshold
pKd (LRRC7, Q96NW7; [2]): below the threshold
pKd (MPP2, Q14168; [2]): below the threshold
pKd (NHERF2_2, Q15599; [2]): 3.7
pKd (NHERF4_2, Q86UT5; [2]): below the threshold
pKd (PDZRN4_1, Q6ZMN7; [2]): below the threshold
pKd (PTPN13_1, Q12923; [2]): below the threshold
pKd (PTPN3, P26045; [2]): 3.53
pKd (SCRIB_1, Q14160; [2]): 3.58
pKd (SCRIB_2, Q14160; [2]): below the threshold
pKd (SCRIB_3, Q14160; [2]): below the threshold
pKd (SHANK1, Q9Y566; [2]): below the threshold
pKd (SIPA1L2, Q9P2F8; [2]): below the threshold
pKd (SNTG2, Q9NY99; [2]): below the threshold
pKd (SYNJ2BP, P57105; [2]): below the threshold
pKd (TJP3_3, O95049; [2]): below the threshold

DPLTPSRSQL [DGKK, Q5KSL6]
pKd (AHNAK1, Q09666; [1]): below the threshold
pKd (ARHGAP21, Q5T5U3; [1]): below the threshold
pKd (DFNB31_1, Q9P202; [1]): below the threshold
pKd (DLG2_2, Q15700; [1]): 3.59
pKd (DLG3_2, Q92796; [1]): below the threshold
pKd (DLG3_3, Q92796; [1]): below the threshold
pKd (DLG4_2, P78352; [1]): below the threshold
pKd (FRMPD3, Q5JV73; [1]): below the threshold
pKd (GRASP, Q7Z6J2; [1]): 4.17
pKd (Inadl_6, Q8NI35; [1]): below the threshold
pKd (LNX1_2, Q8TBB1; [1]): below the threshold
pKd (LRRC7, Q96NW7; [1]): below the threshold
pKd (MPP2, Q14168; [1]): below the threshold
pKd (NHERF2_2, Q15599; [1]): below the threshold
pKd (NHERF4_2, Q86UT5; [1]): below the threshold
pKd (PDZRN4_1, Q6ZMN7; [1]): below the threshold
pKd (PTPN13_1, Q12923; [1]): below the threshold
pKd (PTPN3, P26045; [1]): below the threshold
pKd (SCRIB_1, Q14160; [1]): below the threshold
pKd (SCRIB_2, Q14160; [1]): below the threshold
pKd (SCRIB_3, Q14160; [1]): 3.5
pKd (SHANK1, Q9Y566; [1]): 4.11
pKd (SIPA1L2, Q9P2F8; [1]): below the threshold
pKd (SNTG2, Q9NY99; [1]): 3.84
pKd (SYNJ2BP, P57105; [1]): below the threshold
pKd (TJP3_3, O95049; [1]): below the threshold

QKNKDKEYYV [NRXN3_rs746444206, Q9Y4C0]
pKd (AHNAK1, Q09666; [3]): below the threshold
pKd (ARHGAP21, Q5T5U3; [3]): 4.09
pKd (DFNB31_1, Q9P202; [3]): below the threshold
pKd (DLG2_2, Q15700; [3]): below the threshold
pKd (DLG3_2, Q92796; [3]): below the threshold
pKd (DLG3_3, Q92796; [3]): below the threshold
pKd (DLG4_2, P78352; [3]): 3.56
pKd (FRMPD3, Q5JV73; [3]): 3.9
pKd (GRASP, Q7Z6J2; [3]): below the threshold
pKd (Inadl_6, Q8NI35; [3]): below the threshold
pKd (LNX1_2, Q8TBB1; [3]): 4
pKd (LRRC7, Q96NW7; [3]): below the threshold
pKd (MPP2, Q14168; [3]): 4.12
pKd (NHERF2_2, Q15599; [3]): below the threshold
pKd (NHERF4_2, Q86UT5; [3]): below the threshold
pKd (PDZRN4_1, Q6ZMN7; [3]): below the threshold
pKd (PTPN13_1, Q12923; [3]): below the threshold
pKd (PTPN3, P26045; [3]): 4.28
pKd (SCRIB_1, Q14160; [3]): below the threshold
pKd (SCRIB_2, Q14160; [3]): below the threshold
pKd (SCRIB_3, Q14160; [3]): below the threshold
pKd (SHANK1, Q9Y566; [3]): below the threshold
pKd (SIPA1L2, Q9P2F8; [3]): below the threshold
pKd (SNTG2, Q9NY99; [3]): below the threshold
pKd (SYNJ2BP, P57105; [3]): below the threshold
pKd (TJP3_3, O95049; [3]): 3.86
